This assay in a line: Fluorescence emission spectra without and with saturating ligand (wavelength shift, ΔIstd, ΔRmax). Also on record: key to ΔIstd: intensity change at λstd normalized to average intensity; key to ΔRmax: ratio change of two emission band areas, unbound vs saturated. To be noted: unbound vs ligand-saturated; for ΔIstd: standard intensity change; for ΔRmax: standard ratiometric change. The method, then: Fluorimetry. All measurements were conducted with an SLM Aminco-Bowman series 2 fluorimeter, with sample stirring at 25° C. Fluorescence emission spectra were acquired with excitation and emission slit widths of 4 and 8 nm, respectively. Photomultiplier tube potential was maintained between 400 and 800 volts. Protein concentrations were in the range of 50 to 1000 nM. Fluorophore-specific excitation was at the following approximate wavelengths: tryptophan, 290 nm; acrylodan, 390 nm; fluorescein, 485 nm; pyrene, 340 nm; NBD and NBDE, 490 nm; JPW4039, 485 nm; JPW4042, 470 nm; JPW4045, 470 nm.
Assessment of fluorescent biosensor function. Fluorescence emission spectra of bPBP-fluorophore conjugates were recorded in the absence and presence of saturating ligand concentrations. Spectral changes were characterized by four parameters: wavelength shift (the difference between the wavelengths of emission maximum in the unbound and ligand-saturated states), direction of intensity change (increase or decrease in intensity at the wavelengths of maximum emission in the two states), standard intensity change (ΔIstd), and standard ratiometric change (ΔR). ΔIstd is defined as the normalized intensity change relative to the average intensity, determined at the wavelength mid-point between the two emission maxima:
[formula] where λstd=(λmax, unbound+λmax, saturated)/2 and I1, I2 are the fluorescence intensities at λstd of each spectrum respectively (FIG. 4A). ΔR is defined in terms of two emission bands, A1 ([λ1, λ2]) and A2 ([λ3, λ4]) (FIG. 4B):
[formula] where ^∘A1, […] the areas in the absence of ligand, and ^∞A1, ^∞A2 the areas in the presence of saturating ligand. A computer program was used to enumerate ΔR for all possible pairs of wavelength bands in the two spectra, to identify the optimal sensing condition, defined as the maximum value of ΔR. Adjustable parameters of the algorithm, and their values used for ΔRmax quantities reported here, are: step size (2 nm), step width (10 nm), minimum integration area limit (fraction of total: 0.1), and maximum integration area limit (fraction of total: 1).

The source of these data is patent publication US9625458B2, “Biosensor” (priority 2002, dated 2017).

Numbering of substitutions follows the chain as printed. Names may count otherwise.

B1: ribose BP A234C JPW4039 (conjugate, UniProt P02925 26-296, looked up, variant A234C)
Ribose import binding protein …: KDTIALVVSTLNNPFFVSLKDGAQKEADKLGYNLVVLDSQNNPAKELANVQDLTVRGTKILLINPTDSDAVGNAVKMANQANIPVITLDRQATKGEVVSHIASDNVLGGKIAGDYIAKKAGEGAKVIELQGIAGTSAARERGEGFQQAVAAHKFNVLASQPADFDRIKGLNVMQNLLTAHPDVQAVFAQNDEMALGALRALQTAGKSDVMVVGFDGTPDGEKAVNDGKLAATICQLPDQIGAKGVETADKVLKGEKVQAKYPVDLKLVVKQ
modifications: JPW4039 dye conjugate
For B1, the ΔIstd came to 0.37 and the ΔRmax worked out at 1.29.

B2: ribose BP E192C Fluorescein (conjugate, UniProt P02925 26-296, looked up, variant E192C)
Ribose import binding protein …: B1 Ribose import binding protein … with E192C, C234A
modifications: fluorescein label
With B2, the ΔIstd came to 0.12 and the ΔRmax turned out to be 1.31.

B3: ribose BP D165C JPW4042 (conjugate, UniProt P02925 26-296, looked up, variant D165C)
Ribose import binding protein …: B1 Ribose import binding protein … with D165C, C234A
modifications: JPW4042 dye conjugate
Regarding B3, the ΔIstd came to 0.06 and the ΔRmax is listed as 0.27.

B4: ribose BP E192C JPW4039 (conjugate, UniProt P02925 26-296, looked up, variant E192C)
Ribose import binding protein …: B1 Ribose import binding protein … with E192C, C234A
modifications: JPW4039 dye label
Turning to B4, the ΔIstd is listed as 0.44 and the ΔRmax worked out at 0.34.

B5: ribose BP D165C JPW4039 (conjugate, UniProt P02925 26-296, looked up, variant D165C)
Ribose import binding protein …: B1 Ribose import binding protein … with D165C, C234A
modifications: JPW4039 dye conjugate
As for B5, the ΔIstd amounted to 0.13 and the ΔRmax is 0.36.

B6: ribose BP L265C JPW4039 (conjugate, UniProt P02925 26-296, looked up, variant L265C)
Ribose import binding protein …: B1 Ribose import binding protein … with C234A, L265C
modifications: JPW4039 label
In the case of B6, the ΔIstd was determined as 0.01 and the ΔRmax was determined as 0.11.

B7: ribose BP L236C Fluorescein (conjugate, UniProt P02925 26-296, looked up, variant L236C)
Ribose import binding protein …: B1 Ribose import binding protein … with C234A, L236C
modifications: fluorescein conjugate
Regarding B7, the ΔIstd was 0.02 and the ΔRmax came out at 0.29.

B8: ribose BP L236C JPW4045 (conjugate, UniProt P02925 26-296, looked up, variant L236C)
Ribose import binding protein …: B1 Ribose import binding protein … with C234A, L236C
modifications: JPW4045 dye label
In the case of B8, the ΔIstd is given as 0.25 and the ΔRmax was 1.70.

B9: ribose BP L236C JPW4042 (conjugate, UniProt P02925 26-296, looked up, variant L236C)
Ribose import binding protein …: B1 Ribose import binding protein … with C234A, L236C
modifications: JPW4042 dye conjugate
On to B9, for which the ΔIstd is 0.55 and the ΔRmax stood at 3.58.

B10: ribose BP A234C JPW4042 (conjugate, UniProt P02925 26-296, looked up, variant A234C)
Ribose import binding protein …: B1 Ribose import binding protein …
modifications: JPW4042 dye conjugate
Consider B10, for which the ΔIstd turned out to be 0.06 and the ΔRmax was 0.99.

B11: ribose BP L236C JPW4039 (conjugate, UniProt P02925 26-296, looked up, variant L236C)
Ribose import binding protein …: B1 Ribose import binding protein … with C234A, L236C
modifications: JPW4039 dye conjugate
Consider B11, for which the ΔIstd came to 0.08 and the ΔRmax came out at 0.29.

B12: ribose BP A234C NBD (conjugate, UniProt P02925 26-296, looked up, variant A234C)
Ribose import binding protein …: B1 Ribose import binding protein …
modifications: NBD conjugate
With B12, the ΔIstd was found to be 0.28 and the ΔRmax was 1.63.

B13: ribose BP E192C NBD (conjugate, UniProt P02925 26-296, looked up, variant E192C)
Ribose import binding protein …: B1 Ribose import binding protein … with E192C, C234A
modifications: NBD dye conjugate
Regarding B13, the ΔIstd is recorded as 0.00 and the ΔRmax was determined as 1.67.

B14: ribose BP L236C NBD (conjugate, UniProt P02925 26-296, looked up, variant L236C)
Ribose import binding protein …: B1 Ribose import binding protein … with C234A, L236C
modifications: NBD label
Take B14: the ΔIstd is recorded as 0.11 and the ΔRmax was determined as 1.96.

B15: ribose BP A234C Acrylodan (conjugate, UniProt P02925 26-296, looked up, variant A234C)
Ribose import binding protein …: B1 Ribose import binding protein …
modifications: acrylodan label
Consider B15, for which the ΔIstd was 0.01 and the ΔRmax is 1.18.

B16: ribose BP D165C Acrylodan (conjugate, UniProt P02925 26-296, looked up, variant D165C)
Ribose import binding protein …: B1 Ribose import binding protein … with D165C, C234A
modifications: acrylodan conjugate
Turning to B16, the ΔIstd worked out at 0.00 and the ΔRmax was found to be 0.37.

B17: ribose BP D165C JPW4045 (conjugate, UniProt P02925 26-296, looked up, variant D165C)
Ribose import binding protein …: B1 Ribose import binding protein … with D165C, C234A
modifications: JPW4045 label
For B17, the ΔIstd was found to be 0.04 and the ΔRmax was found to be 0.77.

B18: phosphate BP S39C JPW4039 (conjugate, UniProt P0AG82 26-346, looked up, variant S39C)
Phosphate-binding protein PstS: EASLTGAGATFPAPVYAKWADTYQKETGNKVNYQGIGSCGGVKQIIANTVDFGASDAPLSDEKLAQEGLFQFPTVIGGVVLAVNIPGLKSGELVLDGKTLGDIYLGKIKKWDDEAIAKLNPGLKLPSQNIAVVRRADGSGTSFVFTSYLAKVNEEWKNNVGTGSTVKWPIGLGGKGNDGIAAFVQRLPGAIGYVEYAYAKQNNLAYTKLISADGKPVSPTEENFANAAKGADWSKTFAQDLTNQKGEDAWPITSTTFILIHKDQKKPEQGTEVLKFFDWAYKTGAKQANDLDYASLPDSVVEQVRAAWKTNIKDSSGKPLY
modifications: JPW4039 dye conjugate
Regarding B18, the ΔIstd is given as 0.36 and the ΔRmax turned out to be 3.15.

B19: phosphate BP S39C JPW4045 (conjugate, UniProt P0AG82 26-346, looked up, variant S39C)
Phosphate-binding protein PstS: B18 Phosphate-binding protein PstS
modifications: JPW4045 dye conjugate
B19: the ΔIstd turned out to be 0.18 and the ΔRmax came out at 4.13.

B20: phosphate BP S39C JPW4042 (conjugate, UniProt P0AG82 26-346, looked up, variant S39C)
Phosphate-binding protein PstS: B18 Phosphate-binding protein PstS
modifications: JPW4042 dye label
For B20, the ΔIstd is recorded as 0.01 and the ΔRmax is on record as 0.15.

B21: phosphate BP S39C NBD (conjugate, UniProt P0AG82 26-346, looked up, variant S39C)
Phosphate-binding protein PstS: B18 Phosphate-binding protein PstS
modifications: NBD dye conjugate
On to B21, for which the ΔIstd is recorded as 0.18 and the ΔRmax worked out at 0.57.

B22: phosphate BP S39C Fluorescein (conjugate, UniProt P0AG82 26-346, looked up, variant S39C)
Phosphate-binding protein PstS: B18 Phosphate-binding protein PstS
modifications: fluorescein conjugate
Regarding B22, the ΔIstd is given as 0.03 and the ΔRmax was found to be 0.21.

B23: phosphate BP S39C Acrylodan (conjugate, UniProt P0AG82 26-346, looked up, variant S39C)
Phosphate-binding protein PstS: B18 Phosphate-binding protein PstS
modifications: acrylodan conjugate
B23: the ΔIstd came out at 0.10 and the ΔRmax was 0.80.
